Measurements published in US20100292083A1 (Ablynx, published 2010).
Where a chain is given by its changes, count along the chain named.

T1: human IL6R (human, UniProt P08887 20-358, limits assumed)
T1 construct: Antigen of the Biacore experiments
T1 sequence (looked up): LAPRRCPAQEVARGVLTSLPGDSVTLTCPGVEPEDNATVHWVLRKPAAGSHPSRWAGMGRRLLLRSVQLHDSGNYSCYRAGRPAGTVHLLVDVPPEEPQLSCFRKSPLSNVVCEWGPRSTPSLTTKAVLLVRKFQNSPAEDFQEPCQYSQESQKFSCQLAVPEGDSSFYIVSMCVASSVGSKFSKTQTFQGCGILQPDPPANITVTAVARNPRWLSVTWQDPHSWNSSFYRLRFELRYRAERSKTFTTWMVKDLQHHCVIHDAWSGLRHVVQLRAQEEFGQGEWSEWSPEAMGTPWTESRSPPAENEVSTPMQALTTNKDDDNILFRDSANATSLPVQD

B1: IL6R65PMP10A11 (VHH)
VHH: EVQLVESGGGLVQPGGSLRLSCAASGSIFKVNAMGWYRQAPGKGRELVAGIISGGSTNYADSVKGRFTISRDNAKNTLYLQMNSLRPEDTAVYYCAFIASNSEYDLGRRFWGQGTLVTVSS
notes: CDR3 library clone
B2: IL6R65PMP11C7 (VHH)
VHH: EVQLVESGGGLVQPGGSLRLSCAASGTIFKVNIMAWYRQAPGKGRELVAAIITSGTTTYADSVKGRFTISRDNAKNTLYLQMNSLRPEDTAVYYCAFVTTNSDYDLGRDYWGQGTLVTVSS
B3: IL6R65PMP11E2 (VHH)
VHH: B2 VHH with I28T, S54G, T56S, T58S
B4: IL6R65PMP18B1 (VHH)
VHH: B1 VHH with A99T, S100A, N101D, S102T, E103D, R108K, F110Y
notes: CDR3 library clone
B5: IL6R65PMP19H7 (VHH)
VHH: B1 VHH with A99T, S100A, N101D, S102T, R108K
notes: CDR3 library clone
B6: IL6R65PMP11D3 (VHH)
VHH: B2 VHH with T27S, V31L, I33V, A50G, I51V, S54G, T56N, T58S
B7: IL6R65PMP13A11 (VHH)
VHH: B2 VHH with I28V, I33A, A50G, I51V, T53S, S54A, T56S, T57A, T58N
B8: IL6R65PMP11D6 (VHH)
VHH: B2 VHH with I28T, V31I, I33V, T53S, S54G, T56S, T58P
B9: IL6R65PMP11E5 (VHH)
VHH: B2 VHH with T27S, I28T, K30R, V31I, A50G, I51V, T56N
B10: IL6R65PMP11G11 (VHH)
VHH: B2 VHH with I28T, V31I, I33V, T58S
B11: IL6R65PMP11F12 (VHH)
VHH: B2 VHH with I28T, K30R, I33V, T53S, S54G, T56S
B12: IL6R65PMP13D2 (VHH)
VHH: B2 VHH with I28T, I33V, T53N, S54D, T56S
B13: IL6R65PMP16H6 (VHH)
VHH: EVQLVESGGGLVQPGGSLRLSCAASGSVFRINAMAWYRQAPGKGRELVAGFVTGGSSNYADSVKGRFTISRDNAKNTLYLQMNSLRPEDTAVYYCAFVTTNSDYDLGRDYWGQGTLVTVSS
B14: IL6R65PMP11A12 (VHH)
VHH: B2 VHH with K30R, I33V, A50G, S54N, T56S, T58S
B15: IL6R65PMP18G11 (VHH)
VHH: B2 VHH with T27S, V31I, I33V, T53N, S54G, T58S
B16: IL6R65PMP18G12 (VHH)
VHH: B2 VHH with T27S, V31I, I33V, T53N, T58S
B17: IL6R65PMP13F10 (VHH)
VHH: B13 VHH with R30K, A35G, F51L, V52I, T53S, G54A, S57T
B18: IL6R65PMP11H10 (VHH)
VHH: B2 VHH with S21T, I28T, I33V, I51V, T53N, S54G, T58S
B19: IL6R65PMP11H4 (VHH)
VHH: B2 VHH with T27S, I28T, K30R, V31L, I33V, S54N
B20: IL6R65PMP13F3 (VHH)
VHH: B2 VHH with I28T, V31I, I33V, S54G
B21: IL6R65PMP11E11 (VHH)
VHH: B2 VHH with I28T, V31I, I33V, E46K, T53N, S54N, T56N
B22: IL6R65PMP11F3 (VHH)
VHH: B2 VHH with K30R, V31I, I33V, T53S, S54G, T56S
B23: IL6R65PMP11E9 (VHH)
VHH: B2 VHH with I28T, V31I, I33V, S54G
B24: IL6R65PMP13D3 (VHH)
VHH: B2 VHH with S25N, I28T, I33V, A50G, I51V, S54G, T58N
B25: IL6R65PMP11C4 (VHH)
VHH: B2 VHH with V31I, I33V, A50G, S54N, T56S
B26: IL6R65PMP13A4 (VHH)
VHH: B2 VHH with I28T, K30R, V31L, I33V
B27: IL6R65PMP13H4 (VHH)
VHH: B13 VHH with V28A, R30K, I31V, A33V, F51V, V52I, G54D, S57T
B28: IL6R65PMP13A2 (VHH)
VHH: B2 VHH with K30R, I33V, S54D
B29: IL6R65PMP11F1 (VHH)
VHH: B13 VHH with S17T, V28T, R30K, A33V, F51V, V52I, G54N, S57T, N58T
B30: IL6R65PMP18E11 (VHH)
VHH: B13 VHH with S27T, V28T, A33V, F51I, V52I, G54N, S57T, N58S
B31: IL6R65PMP12C8 (VHH)
VHH: B13 VHH with S27T, R30K, F51L, T53S, G54A, S56T, S57A
B32: IL6R65PMP13G5 (VHH)
VHH: B2 VHH with V31I, T53N, T56S, T58S
B33: IL6R65PMP11G7 (VHH)
VHH: B2 VHH with V31L, I33V, S54G
B34: IL6R65PMP19A4 (VHH)
VHH: B1 VHH with A99T, S100T, N101D, S102T, E103N, R108K, F110S
notes: CDR3 library clone
B35: IL6R65PMP12E1 (VHH)
VHH: B13 VHH with S25N, F29Y, R30K, I31V, F51I, S56T
B36: IL6R65PMP11D12 (VHH)
VHH: B2 VHH with V31I, T53N, T56S, T58S
B37: IL6R65PMP11E4 (VHH)
VHH: B2 VHH with S21T, I33V, S54G, T56S, T58S
B38: IL6R65PMP12C7 (VHH)
VHH: B13 VHH with F29Y, A35G, F51L, V52I, T53S, G54A, S57T
B39: IL6R65PMP18G7 (VHH)
VHH: B2 VHH with I28T, I33V, A50G, S54G, T56S
B40: IL6R65PMP11B4 (VHH)
VHH: B2 VHH with T27S, V31I, I33V, T53N, S54G, T58S
B41: IL6R65PMP11F10 (VHH)
VHH: B2 VHH with I28T, V31L, I51V, T53N, S54G
B42: IL6R65PMP13B2 (VHH)
VHH: B2 VHH with I28T, S54N, T56S
B43: IL6R65PMP11D4 (VHH)
VHH: B2 VHH with I28T, V31I, A50G, I51V, T53N, T58N
B44: IL6R65PMP13B3 (VHH)
VHH: B2 VHH with R19H, V31I, I33V, S54D, T56S
B45: IL6R65PMP18G8 (VHH)
VHH: B2 VHH with I28T, V31I, I33V, A50G, S54G
B46: IL6R65PMP11G10 (VHH)
VHH: B2 VHH with T27S, I28T, K30R, V31I, I33V, A50G, S54N
B47: IL6R65PMP11H2 (VHH)
VHH: B2 VHH with T27S, V31I, I33V, T53N, S54G, T58S
B48: IL6R65PMP19H2 (VHH)
VHH: B1 VHH with A99T, S100A, N101D, S102T, E103D, R108K, F110Y
notes: CDR3 library clone
B49: IL6R65PMP11D11 (VHH)
VHH: B13 VHH with V28T, R30K, A33I, F51V, V52I, S56N, S57T
B50: IL6R65PMP13F5 (VHH)
VHH: B13 VHH with S27T, V28T, A33V, F51I, V52I, G54N, S57T, N58S

Molecular target: T1, human IL6R
Test: SPR (Biacore), periplasmic extract
Description: Selection outputs were analyzed by picking individual colonies and growing them overnight in 1 ml 2×YT (Yeast Tryptone) medium+100 ug/ml Carbenicillin at 37 C. Nanobody containing periplasmic extracts were prepared, diluted 1/10 in PBS and subsequently tested for antigen binding in ELISA. Clones with the highest ELISA signals were sequenced and analyzed on Biacore. […] The off-rate of the best clone from the CDR3 library was 7×10e-4 s-1.

Row | Binder | koff
1 | B1 | 0.001 s⁻¹
2 | B2 | 0.00085 s⁻¹
3 | B3 | 0.00068 s⁻¹
4 | B4 | 0.00072 s⁻¹
5 | B5 | 0.0011 s⁻¹
6 | B6 | 0.00031 s⁻¹
7 | B7 | 0.00083 s⁻¹
8 | B8 | 0.00068 s⁻¹
9 | B9 | 0.00048 s⁻¹
10 | B10 | 0.0005 s⁻¹
11 | B11 | 0.00067 s⁻¹
12 | B12 | 0.0011 s⁻¹
13 | B13 | 0.00032 s⁻¹
14 | B14 | 0.00012 s⁻¹
15 | B15 | 0.00033 s⁻¹
16 | B16 | 0.00034 s⁻¹
17 | B17 | 0.0011 s⁻¹
18 | B18 | 0.00043 s⁻¹
19 | B19 | 0.0008 s⁻¹
20 | B20 | 0.00046 s⁻¹
21 | B21 | 0.00049 s⁻¹
22 | B22 | 0.00048 s⁻¹
23 | B23 | 0.00035 s⁻¹
24 | B24 | 0.00048 s⁻¹
25 | B25 | 0.00031 s⁻¹

Row | Binder | koff
26 | B26 | 0.00072 s⁻¹
27 | B27 | 0.00052 s⁻¹
28 | B28 | 0.00061 s⁻¹
29 | B29 | 0.00037 s⁻¹
30 | B30 | 0.00027 s⁻¹
31 | B31 | 0.00066 s⁻¹
32 | B32 | 0.00069 s⁻¹
33 | B33 | 0.00036 s⁻¹
34 | B34 | 0.00089 s⁻¹
35 | B35 | 0.00026 s⁻¹
36 | B36 | 0.00058 s⁻¹
37 | B37 | 0.00023 s⁻¹
38 | B38 | 0.00091 s⁻¹
39 | B39 | 0.0003 s⁻¹
40 | B40 | 0.00028 s⁻¹
41 | B41 | 0.0013 s⁻¹
42 | B42 | 0.0014 s⁻¹
43 | B43 | 0.001 s⁻¹
44 | B44 | 0.00076 s⁻¹
45 | B45 | 0.00023 s⁻¹
46 | B46 | 0.00021 s⁻¹
47 | B47 | 0.0003 s⁻¹
48 | B48 | 0.00074 s⁻¹
49 | B49 | 0.00039 s⁻¹
50 | B50 | 0.00037 s⁻¹
